{"source": "patent US20250114463A1", "about": "“LIVER-TARGETED DRUG AND USE THEREOF” (HANMI PHARM. CO., LTD., priority 2021, published 2025)", "binders": {"B1": {"name": "triple agonist of SEQ ID NO: 41 (peptide)", "peptide": "HXQGTFTSDKSKYLDECAAQDFVQWLLDGGPSSGAPPPS", "HELM": "PEPTIDE1{H.[Aib].Q.G.T.F.T.S.D.K.S.K.Y.L.D.E.C.A.A.Q.D.F.V.Q.W.L.L.D.G.G.P.S.S.G.A.P.P.P.S.[am]}$$$$V2.0; N-terminus assumed", "SMILES": "CC(C)C[C@H](NC(=O)[C@H](CC(C)C)NC(=O)[C@H](Cc1c[nH]c2ccccc12)NC(=O)[C@H](CCC(N)=O)NC(=O)[C@@H](NC(=O)[C@H](Cc1ccccc1)NC(=O)[C@H](CC(=O)O)NC(=O)[C@H](CCC(N)=O)NC(=O)[C@H](C)NC(=O)[C@H](C)NC(=O)[C@H](CS)NC(=O)[C@H](CCC(=O)O)NC(=O)[C@H](CC(=O)O)NC(=O)[C@H](CC(C)C)NC(=O)[C@H](Cc1ccc(O)cc1)NC(=O)[C@H](CCCCN)NC(=O)[C@H](CO)NC(=O)[C@H](CCCCN)NC(=O)[C@H](CC(=O)O)NC(=O)[C@H](CO)NC(=O)[C@@H](NC(=O)[C@H](Cc1ccccc1)NC(=O)[C@@H](NC(=O)CNC(=O)[C@H](CCC(N)=O)NC(=O)C(C)(C)NC(=O)[C@@H](N)Cc1c[nH]cn1)[C@@H](C)O)[C@@H](C)O)C(C)C)C(=O)N[C@@H](CC(=O)O)C(=O)NCC(=O)NCC(=O)N1CCC[C@H]1C(=O)N[C@@H](CO)C(=O)N[C@@H](CO)C(=O)NCC(=O)N[C@@H](C)C(=O)N1CCC[C@H]1C(=O)N1CCC[C@H]1C(=O)N1CCC[C@H]1C(=O)N[C@@H](CO)C(N)=O"}}, "note": "Bridges are numbered along the chain shown (N, C = ends). Where no end group is shown, it is not given here. [ ]: non-standard residue; d: D form. The star is where a group is joined. Acetyl(2-(4-imidazolyl)) = O=C(Cc1c[nH]cn1)*; Aib = CC(C)(N)C(=O)O", "data": [{"target": "human GLP-1 receptor (human, UniProt P43220 24-463)", "test": "cell-based or functional assay", "units": {"in vitro Activity Compared to Native Peptide (%), vs GLP-1": "%"}, "values": [{"binder": "H[Aib]EGTFTSDYSIAMDEIHQKDFVNWLLAQC (bridge 16-20; not fully specified (C-terminus))", "note": "[triple agonist of SEQ ID NO: 53]", "in vitro Activity Compared to Native Peptide (%), vs GLP-1": 161}, {"binder": "Y[Aib]QGTFTSDYSKYLDEKRAKEFVQWLLDHHPSSGQPPPSC-NH2 (bridge 16-20)", "note": "[triple agonist of SEQ ID NO: 42]", "in vitro Activity Compared to Native Peptide (%), vs GLP-1": 33.9}, {"binder": "[Acetyl(2-(4-imidazolyl))][Aib]QGTFTSDYSICMDEKHQKDFVNWLLNTK (bridge 16-20; not fully specified (C-terminus))", "note": "[triple agonist of SEQ ID NO: 59]", "in vitro Activity Compared to Native Peptide (%), vs GLP-1": 40.3}, {"binder": "Y[Aib]QGTFTSDYSKYLDEKRAKEFVQWLLDHHCSSGQPPPS-NH2 (bridge 16-20)", "note": "[triple agonist of SEQ ID NO: 43]", "in vitro Activity Compared to Native Peptide (%), vs GLP-1": 12.6}, {"binder": "[Acetyl(2-(4-imidazolyl))][Aib]QGTFTSDYSICMDEIHQKDFVNWLLNTK (bridge 16-20; not fully specified (C-terminus))", "note": "[triple agonist of SEQ ID NO: 49]", "in vitro Activity Compared to Native Peptide (%), vs GLP-1": 29.8}, {"binder": "H[Aib]QGTFTSDYSKYLDEKRQKEFVQWLLDTC (bridge 16-20; not fully specified (C-terminus))", "note": "[triple agonist of SEQ ID NO: 52]", "in vitro Activity Compared to Native Peptide (%), vs GLP-1": 44.1}, {"binder": "B1", "in vitro Activity Compared to Native Peptide (%), vs GLP-1": 34.3}, {"binder": "H[Aib]EGTFTSDYSIAMDEIHQKDFVDWLLAEC (bridge 16-20; not fully specified (C-terminus))", "note": "[triple agonist of SEQ ID NO: 54]", "in vitro Activity Compared to Native Peptide (%), vs GLP-1": 30.6}, {"binder": "H[Aib]QGTFTSDYSKYLDEKRQKEFVNWLLAQC (bridge 16-20; not fully specified (C-terminus))", "note": "[triple agonist of SEQ ID NO: 56]", "in vitro Activity Compared to Native Peptide (%), vs GLP-1": 57.9}, {"binder": "H[Aib]QGTFTSDYSIAMDEIHQKDFVNWLLAQC (bridge 16-20; not fully specified (C-terminus))", "note": "[triple agonist of SEQ ID NO: 55]", "in vitro Activity Compared to Native Peptide (%), vs GLP-1": 27.1}, {"binder": "H[Aib]QGTFTSDYSKYLDEKRAKEFVQWLLDHHPSSGQPPPSC-NH2 (bridge 16-20)", "note": "[triple agonist of SEQ ID NO: 50]", "in vitro Activity Compared to Native Peptide (%), vs GLP-1": 67.4}]}, {"target": "human GCG receptor (human, UniProt P47871 26-477)", "sequence (P47871 26-477)": "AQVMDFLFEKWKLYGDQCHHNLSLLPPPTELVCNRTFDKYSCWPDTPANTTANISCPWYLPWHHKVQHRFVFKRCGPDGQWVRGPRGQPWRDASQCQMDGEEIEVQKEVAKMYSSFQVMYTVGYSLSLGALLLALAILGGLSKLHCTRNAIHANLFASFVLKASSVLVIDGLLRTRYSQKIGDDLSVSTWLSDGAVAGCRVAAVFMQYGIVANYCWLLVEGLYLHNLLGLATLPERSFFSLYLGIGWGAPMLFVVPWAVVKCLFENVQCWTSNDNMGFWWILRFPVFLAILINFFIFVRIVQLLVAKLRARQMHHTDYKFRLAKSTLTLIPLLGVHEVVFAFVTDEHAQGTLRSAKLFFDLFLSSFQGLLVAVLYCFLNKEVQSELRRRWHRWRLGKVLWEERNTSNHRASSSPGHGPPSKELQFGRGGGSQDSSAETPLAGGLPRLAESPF", "test": "cell-based or functional assay", "units": {"in vitro Activity Compared to Native Peptide (%), vs Glucagon": "%"}, "values": [{"binder": "H[Aib]EGTFTSDYSIAMDEIHQKDFVNWLLAQC (bridge 16-20; not fully specified (C-terminus))", "note": "[triple agonist of SEQ ID NO: 53]", "in vitro Activity Compared to Native Peptide (%), vs Glucagon": 8.4}, {"binder": "Y[Aib]QGTFTSDYSKYLDEKRAKEFVQWLLDHHPSSGQPPPSC-NH2 (bridge 16-20)", "note": "[triple agonist of SEQ ID NO: 42]", "in vitro Activity Compared to Native Peptide (%), vs Glucagon": 206}, {"binder": "[Acetyl(2-(4-imidazolyl))][Aib]QGTFTSDYSICMDEKHQKDFVNWLLNTK (bridge 16-20; not fully specified (C-terminus))", "note": "[triple agonist of SEQ ID NO: 59]", "in vitro Activity Compared to Native Peptide (%), vs Glucagon": "< 0.1"}, {"binder": "Y[Aib]QGTFTSDYSKYLDEKRAKEFVQWLLDHHCSSGQPPPS-NH2 (bridge 16-20)", "note": "[triple agonist of SEQ ID NO: 43]", "in vitro Activity Compared to Native Peptide (%), vs Glucagon": 88.4}, {"binder": "[Acetyl(2-(4-imidazolyl))][Aib]QGTFTSDYSICMDEIHQKDFVNWLLNTK (bridge 16-20; not fully specified (C-terminus))", "note": "[triple agonist of SEQ ID NO: 49]", "in vitro Activity Compared to Native Peptide (%), vs Glucagon": "< 0.1"}, {"binder": "H[Aib]QGTFTSDYSKYLDEKRQKEFVQWLLDTC (bridge 16-20; not fully specified (C-terminus))", "note": "[triple agonist of SEQ ID NO: 52]", "in vitro Activity Compared to Native Peptide (%), vs Glucagon": 7.5}, {"binder": "B1", "in vitro Activity Compared to Native Peptide (%), vs Glucagon": "< 0.1"}, {"binder": "H[Aib]EGTFTSDYSIAMDEIHQKDFVDWLLAEC (bridge 16-20; not fully specified (C-terminus))", "note": "[triple agonist of SEQ ID NO: 54]", "in vitro Activity Compared to Native Peptide (%), vs Glucagon": 1.4}, {"binder": "H[Aib]QGTFTSDYSKYLDEKRQKEFVNWLLAQC (bridge 16-20; not fully specified (C-terminus))", "note": "[triple agonist of SEQ ID NO: 56]", "in vitro Activity Compared to Native Peptide (%), vs Glucagon": 4.9}, {"binder": "H[Aib]QGTFTSDYSIAMDEIHQKDFVNWLLAQC (bridge 16-20; not fully specified (C-terminus))", "note": "[triple agonist of SEQ ID NO: 55]", "in vitro Activity Compared to Native Peptide (%), vs Glucagon": 0.7}, {"binder": "H[Aib]QGTFTSDYSKYLDEKRAKEFVQWLLDHHPSSGQPPPSC-NH2 (bridge 16-20)", "note": "[triple agonist of SEQ ID NO: 50]", "in vitro Activity Compared to Native Peptide (%), vs Glucagon": 50.5}]}, {"target": "T1, human GIP receptor (human, UniProt P48546 22-466)", "T1 sequence (looked up)": "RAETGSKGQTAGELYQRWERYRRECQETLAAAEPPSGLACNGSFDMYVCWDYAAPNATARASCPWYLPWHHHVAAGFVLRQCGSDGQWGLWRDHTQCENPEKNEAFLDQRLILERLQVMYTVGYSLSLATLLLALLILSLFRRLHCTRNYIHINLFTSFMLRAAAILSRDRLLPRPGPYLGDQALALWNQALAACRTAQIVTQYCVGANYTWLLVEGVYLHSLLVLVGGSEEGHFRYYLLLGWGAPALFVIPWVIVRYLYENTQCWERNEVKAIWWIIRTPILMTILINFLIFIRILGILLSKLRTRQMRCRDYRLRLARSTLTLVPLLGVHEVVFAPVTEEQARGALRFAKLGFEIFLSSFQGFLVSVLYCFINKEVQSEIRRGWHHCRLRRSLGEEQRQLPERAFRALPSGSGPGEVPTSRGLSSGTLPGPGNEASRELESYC", "test": "cell-based or functional assay", "units": {"in vitro Activity Compared to Native Peptide (%), vs GIP": "%"}, "values": [{"binder": "H[Aib]EGTFTSDYSIAMDEIHQKDFVNWLLAQC (bridge 16-20; not fully specified (C-terminus))", "note": "[triple agonist of SEQ ID NO: 53]", "in vitro Activity Compared to Native Peptide (%), vs GIP": 1.3}, {"binder": "Y[Aib]QGTFTSDYSKYLDEKRAKEFVQWLLDHHPSSGQPPPSC-NH2 (bridge 16-20)", "note": "[triple agonist of SEQ ID NO: 42]", "in vitro Activity Compared to Native Peptide (%), vs GIP": 7.8}, {"binder": "[Acetyl(2-(4-imidazolyl))][Aib]QGTFTSDYSICMDEKHQKDFVNWLLNTK (bridge 16-20; not fully specified (C-terminus))", "note": "[triple agonist of SEQ ID NO: 59]", "in vitro Activity Compared to Native Peptide (%), vs GIP": 4}, {"binder": "Y[Aib]QGTFTSDYSKYLDEKRAKEFVQWLLDHHCSSGQPPPS-NH2 (bridge 16-20)", "note": "[triple agonist of SEQ ID NO: 43]", "in vitro Activity Compared to Native Peptide (%), vs GIP": 3.7}, {"binder": "[Acetyl(2-(4-imidazolyl))][Aib]QGTFTSDYSICMDEIHQKDFVNWLLNTK (bridge 16-20; not fully specified (C-terminus))", "note": "[triple agonist of SEQ ID NO: 49]", "in vitro Activity Compared to Native Peptide (%), vs GIP": 3.3}, {"binder": "H[Aib]QGTFTSDYSKYLDEKRQKEFVQWLLDTC (bridge 16-20; not fully specified (C-terminus))", "note": "[triple agonist of SEQ ID NO: 52]", "in vitro Activity Compared to Native Peptide (%), vs GIP": 0.3}, {"binder": "B1", "in vitro Activity Compared to Native Peptide (%), vs GIP": "< 0.1"}, {"binder": "H[Aib]EGTFTSDYSIAMDEIHQKDFVDWLLAEC (bridge 16-20; not fully specified (C-terminus))", "note": "[triple agonist of SEQ ID NO: 54]", "in vitro Activity Compared to Native Peptide (%), vs GIP": 0.1}, {"binder": "H[Aib]QGTFTSDYSKYLDEKRQKEFVNWLLAQC (bridge 16-20; not fully specified (C-terminus))", "note": "[triple agonist of SEQ ID NO: 56]", "in vitro Activity Compared to Native Peptide (%), vs GIP": 0.8}, {"binder": "H[Aib]QGTFTSDYSIAMDEIHQKDFVNWLLAQC (bridge 16-20; not fully specified (C-terminus))", "note": "[triple agonist of SEQ ID NO: 55]", "in vitro Activity Compared to Native Peptide (%), vs GIP": 2.4}, {"binder": "H[Aib]QGTFTSDYSKYLDEKRAKEFVQWLLDHHPSSGQPPPSC-NH2 (bridge 16-20)", "note": "[triple agonist of SEQ ID NO: 50]", "in vitro Activity Compared to Native Peptide (%), vs GIP": 2.7}]}]}
